Measurements as given in patent publication US7033590 (BAXTER AKTIENGESELLSCHAFT, dated 2006).
Non-standard residues stand in square brackets, D forms with d. No end group written: not given here.

B1: monoclonal antibody 198/B1 (antibody, V domains shown)
VH: EVQLQESGGGLVKPGGSLKLSCAASGFTFSSYTMSWVRQTPEKRLEWVATISSGGSSTYYPDSVKGRFTISRDNAKNTLYLQMSSLRSEDTAMYYCTREGGGFTVNWYFDVWGAGTLVTVSA
VL: ENVLTQSPASLAVSLGQRATISCRASESVDSYGYNFMHWYQQIPGQPPKLLIYRASNLESGIPARFSGSGSRTDFTLTINPVEADDVATYYCQQSNEDPLTFGTGTRLEIKR
B2: irrelevant monoclonal antibody #8860 (antibody, V domains shown)
VH: EVQLQQSGPELVKPGASVKISCKASGYAFSSSWMNWVKQRPGQGLEWIGRIYPGNGDTNYNGKFKGKATLTADKSSSTAYMQLSSLTSVDSAVYFCADGNVYYYAMDYWGQGTSVTVSS
VL: QIVLTQSPASLAVSLGQRATISCRASKSVSTSGYSYMHWYQQKPGQPPKLLIYLASNLESGVPARFSGSGSGTDFTLNIHPVEEEDAATYYCQHSRELPRTFGGGTKLEIKR
notes: Tested as the monoclonal antibody
B3: peptide A1/3 (peptide)
peptide: RRREGGGYYVNWYFDRRR
B4: peptide A1/3-Rd-srmb (peptide)
peptide: [dR][dR][dR]GEYGVYWNGDFY[dR][dR][dR]
B5: peptide A1/3-Rd (peptide)
peptide: [dR][dR][dR]EGGGYYVNWYFD[dR][dR][dR]

How the values were obtained:
[1] = target: T1, human activated factor IX (human FIXa) (human, UniProt P00740 47-191; P00740 227-461); test: cell-based or functional assay
[2] = target: T1, human activated factor IX (human FIXa); test: cell-based or functional assay; remark: listed apart in the source
[3] = target: T2, human coagulation factor (F) IX (human, UniProt P00740 47-461); test: Western blot and ELISA
T2 construct: also called Factor IX; factor IX
T2 sequence (P00740 47-461 limits assumed): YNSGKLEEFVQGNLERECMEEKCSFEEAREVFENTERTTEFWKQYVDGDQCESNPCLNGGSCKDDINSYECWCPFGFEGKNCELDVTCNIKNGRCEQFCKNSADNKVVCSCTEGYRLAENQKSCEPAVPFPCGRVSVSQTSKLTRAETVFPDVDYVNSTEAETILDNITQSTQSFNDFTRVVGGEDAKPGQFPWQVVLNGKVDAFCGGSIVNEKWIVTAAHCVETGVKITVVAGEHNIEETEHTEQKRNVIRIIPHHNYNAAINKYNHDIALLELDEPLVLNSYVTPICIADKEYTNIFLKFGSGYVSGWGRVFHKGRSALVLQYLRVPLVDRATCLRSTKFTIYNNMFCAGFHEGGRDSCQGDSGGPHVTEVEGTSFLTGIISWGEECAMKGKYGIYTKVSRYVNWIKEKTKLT

[4] = target: T1, human activated factor IX (human FIXa); test: cell-based or functional assay; remark: listed apart in the source

Molecule	clotting time, aPTT one-stage assay (Table 4), 2.2 nM FIXa, peptide 1.25 µM, average (IZ buffer 96) [4]	clotting time, aPTT one-stage assay (Table 4), 2.2 nM FIXa, peptide 1.25 µM, duplicate 1 (IZ buffer 96) [4]	clotting time, aPTT one-stage assay (Table 4), 2.2 nM FIXa, peptide 1.25 µM, duplicate 2 (IZ buffer 96) [4]	clotting time, aPTT one-stage assay (Table 4), 2.2 nM FIXa, peptide 2.5 µM, average (IZ buffer 96) [4]	clotting time, aPTT one-stage assay (Table 4), 2.2 nM FIXa, peptide 2.5 µM, duplicate 1 (IZ buffer 96) [4]	clotting time, aPTT one-stage assay (Table 4), 2.2 nM FIXa, peptide 2.5 µM, duplicate 2 (IZ buffer 96) [4]	clotting time, aPTT one-stage assay (Table 4), 2.2 nM FIXa, peptide 5 µM, average (IZ buffer 96) [4]	clotting time, aPTT one-stage assay (Table 4), 2.2 nM FIXa, peptide 5 µM, duplicate 1 (IZ buffer 96) [4]	clotting time, aPTT one-stage assay (Table 4), 2.2 nM FIXa, peptide 5 µM, duplicate 2 (IZ buffer 96) [4]	clotting time, aPTT one-stage assay (Table 4), 2.2 nM FIXa, peptide 7.5 µM, average (IZ buffer 96) [4]	clotting time, aPTT one-stage assay (Table 4), 2.2 nM FIXa, peptide 7.5 µM, duplicate 1 (IZ buffer 96) [4]	clotting time, aPTT one-stage assay (Table 4), 2.2 nM FIXa, peptide 7.5 µM, duplicate 2 (IZ buffer 96) [4]	clotting time, aPTT one-stage assay (Table 4), 2.2 nM FIXa, peptide 10 µM, average (IZ buffer 96) [4]	clotting time, aPTT one-stage assay (Table 4), 2.2 nM FIXa, peptide 10 µM, duplicate 1 (IZ buffer 96) [4]	clotting time, aPTT one-stage assay (Table 4), 2.2 nM FIXa, peptide 10 µM, duplicate 2 (IZ buffer 96) [4]	clotting time, aPTT one-stage assay (Table 4), 2.2 nM FIXa, peptide 12.5 µM, average (IZ buffer 96) [4]	clotting time, aPTT one-stage assay (Table 4), 2.2 nM FIXa, peptide 12.5 µM, duplicate 1 (IZ buffer 96) [4]	clotting time, aPTT one-stage assay (Table 4), 2.2 nM FIXa, peptide 12.5 µM, duplicate 2 (IZ buffer 96) [4]	clotting time, aPTT one-stage assay (Table 4), 2.2 nM FIXa, peptide 15 µM, average (IZ buffer 96) [4]	clotting time, aPTT one-stage assay (Table 4), 2.2 nM FIXa, peptide 15 µM, duplicate 1 (IZ buffer 96) [4]	further results
Factor VIII (from UniProt P00451 20-2351)																					clotting time, aPTT one-stage (Pathromtin SL), FVIII deficient plasma, 2.2 nM human FIXa, FVIII 6.25 mU/ml, average (IZ buffer 108) [1]: 59 s; clotting time, aPTT one-stage (Pathromtin SL), FVIII deficient plasma, 2.2 nM human FIXa, FVIII 6.25 mU/ml, duplicate 1 (IZ buffer 107.9) [1]: 58.6 s; clotting time, aPTT one-stage (Pathromtin SL), FVIII deficient plasma, 2.2 nM human FIXa, FVIII 6.25 mU/ml, duplicate 2 (IZ buffer 108.7) [1]: 58.9 s; clotting time, aPTT one-stage (Pathromtin SL), FVIII deficient plasma, 2.2 nM human FIXa, FVIII 12.5 mU/ml, average (IZ buffer 108) [1]: 53 s; clotting time, aPTT one-stage (Pathromtin SL), FVIII deficient plasma, 2.2 nM human FIXa, FVIII 12.5 mU/ml, duplicate 1 (IZ buffer 107.9) [1]: 52.9 s; clotting time, aPTT one-stage (Pathromtin SL), FVIII deficient plasma, 2.2 nM human FIXa, FVIII 12.5 mU/ml, duplicate 2 (IZ buffer 108.7) [1]: 53.6 s
unspecific mouse IgG (antibody)																					clotting time, aPTT one-stage assay, FVIII deficient plasma, 50 ng FIXa, 0.23 µg antibody [1]: 104 s; clotting time, aPTT one-stage assay, FVIII deficient plasma, 50 ng FIXa, 0.34 µg antibody [1]: 104 s; clotting time, aPTT one-stage assay, FVIII deficient plasma, 50 ng FIXa, 0.45 µg antibody [1]: 102 s; clotting time, aPTT one-stage assay, FVIII deficient plasma, 50 ng FIXa, 0.9 µg antibody [1]: 102 s; clotting time, aPTT one-stage assay, FVIII deficient plasma, 50 ng FIXa, 1.35 µg antibody [1]: 103 s; clotting time, aPTT one-stage assay, FVIII deficient plasma, 50 ng FIXa, 1.8 µg antibody [1]: 102 s; clotting time, aPTT one-stage assay, FVIII deficient plasma, 50 ng FIXa, 2.25 µg antibody [1]: 103 s; clotting time, aPTT one-stage assay, FVIII deficient plasma, 50 ng FIXa, 4.5 µg antibody [1]: 103 s; clotting time, aPTT one-stage assay, FVIII deficient plasma, 50 ng FIXa, 9 µg antibody [1]: 102 s
B1																					amidolytic activity of FIXa (cleavage of CH3SO2-D-CHG-Gly-Arg-pNA, OD405), 20 mU FIXa (Stago), various amounts of antibody [2]: ≥ 2 fold
B2																					binding result [3]: no binding
B3	95 s	94.4 s	95 s	93 s	93.6 s	93.3 s	89 s	89.7 s	88.3 s	81 s	80.7 s	80.5 s	73 s	72 s	73.2 s	67 s	65 s	68 s	56 s	56.1 s	clotting time, aPTT one-stage assay (Table 4), 2.2 nM FIXa, peptide 15 µM, duplicate 2 (IZ buffer 96) [4]: 55.5 s
B4	103 s	101 s	105 s	105 s	105 s	104 s	108 s	108 s	108 s	107 s	108 s	107 s	108 s	107 s	108 s	108 s	108 s	108 s	113 s	113 s	clotting time, aPTT one-stage assay (Table 4), 2.2 nM FIXa, peptide 15 µM, duplicate 2 (IZ buffer 96) [4]: 112 s
B5	96 s	96.6 s	96 s	95 s	94.4 s	94.7 s	86 s	86 s	85.1 s	82 s	80.9 s	82.2 s	76 s	74.2 s	77.2 s	73 s	72.3 s	73.7 s	75 s	76.1 s	clotting time, aPTT one-stage assay (Table 4), 2.2 nM FIXa, peptide 15 µM, duplicate 2 (IZ buffer 96) [4]: 74.4 s
